Measurements: US10208121B2, “Anti-Axl antagonistic antibodies” (BERGEN TEKNOLOGIOVERFORING AS, priority 2014, dated 2019)
Entries after “also recorded” stand apart in the source; their conditions may differ.

Columns and labels:
[1] = biological target: T1, human Axl (rhAxl-Fc chimera) (Homo sapiens, UniProt P30530); assay: Biacore binding analysis on immobilized human Axl; conditions: 10 μg/mL, 25° C.
T1 construct: Soluble recombinant antigens corresponding to the extracellular domains of members of the human TAM receptor family; purchased R&D Systems 154-AL
Procedure: All binding experiments were performed using Biacore 3000 instrument (GE Healthcare) at 25° C. Soluble recombinant antigens corresponding to the extracellular domains of members of the human TAM receptor family, Axl (rhAxl-Fc chimera; R&D Systems, Cat. no. 154-AL), Mer (rhMer-Fc chimera; R&D Systems, Cat. no. 891-MR) and Tyro3 (rhTyro3/Dtk-Fc chimera; R&D Systems, Cat. no. 859-DK) were immobilized on the surface of CM5 sensor chip using amine coupling at the surface density of 393.0, 303.6 and 364.0 resonance units (RU), respectively. The Biacore run was performed in an automatic mode using Binding analysis wizard. Samples containing either MAb 10C9 or MAb 10G5 at concentration 10 μg/mL in HBS-EP buffer (GE Healthcare) were injected over the surfaces with immobilized antigens at flow rate of 30 μL/min for 3 min (association) followed by 5 min dissociation.
The binding experiments were performed using Biacore 3000 instrument (GE Healthcare) at 25° C. The soluble recombinant antigens corresponding to human Axl (rhAxl-Fc chimera; R&D Systems, Cat. no. 154-AL), mouse Axl (rmAxl-Fc chimera; R&D Systems, R&D Systems; Cat. no. 854-AX) and human Tyro3 (rhTyro3/Dtk-Fc chimera; R&D Systems, Cat. no. 859-DK) were immobilized on the surface of CM5 sensor chip using amine coupling at the surface density of 1,308.0, 2,115.9 and 1,429.0 RU, respectively. The Biacore runs were performed in an automatic mode using Binding analysis wizard.
The sample containing either MAb 10C9, MAb 10G5 or recombinant mouse (rm) Axl-ligand Gas6 (R&D Systems, Cat. no. 986-GS/CF) at concentration 10 μg/mL in HBS-EP buffer (GE Healthcare) was injected over the surfaces with immobilized antigens at flow rate of 30 μL/min for 3 min (association) followed by 5 min dissociation.
The sequence of Axl receptor from cynomolgus monkey (Macaca fascicularis; SEQ ID NO.43) was retrieved from WO2009062690A1. Based on the sequence, recombinant extracellular domain of cyno-Axl was generated by transient expression in CHO cells as a fusion protein with human Fc. The recombinant cyno-Axl-Fc was purified to homogeneity using Protein A-Sepharose (GE Healthcare). The binding experiments were performed using Biacore 3000 instrument (GE Healthcare) at 25° C. The soluble recombinant antigens corresponding to human Axl (rhAxl-Fc chimera; R&D Systems, Cat. no. 154-AL) and cyno-Axl were immobilized on the surface of CM5 sensor chip using amine coupling at the surface density of 775 and 880 RU, respectively. The Biacore runs were performed in an automatic mode using Binding analysis wizard.
The sample containing either MAb 10C9, MAb 10G5 or human Axl-specific MAb 5F11 (control) at concentration 10 μg/mL in HBS-EP buffer (GE Healthcare) was injected over the surfaces with immobilized antigens at flow rate of 30 μL/min for 3 min (association) followed by 5 min dissociation.
In addition, the Axl-binding properties of the chimeric antibodies c10C9 and c10G5 were tested using Biacore 3000 instrument (GE Healthcare) and a sensor chip CM5 coated with human Axl (rhAxl-Fc chimera; R&D Systems, Cat. no. 154-AL) at the surface density of 1,308.0 RU. The Biacore runs were performed in an automatic mode using Binding analysis wizard. The samples comprising either the chimeric antibodies c10C9 and c10G5 or their murine counterparts at concentration 10 μg/mL in HBS-EP buffer (GE Healthcare) were injected over the surfaces with immobilized antigens at flow rate of 30 μL/min for 3 min (association) followed by 5 min dissociation.

[2] = biological target: T2, rhAxl-Fc chimera (recombinant human Axl) (Homo sapiens, UniProt P30530); assay: Biacore surface plasmon resonance kinetic affinity determination on immobilized rhAxl-Fc; type: binding; conditions: for association rate (kon): human Axl, Examples 5 and 13; for Off-rate (koff; s^−1) / On-rate (kon; M^−1s^−1): rhAxl immobilized on sensor chip, 25° C., 1:1 Langmuir binding model
T2 construct: Soluble recombinant antigens corresponding to the extracellular domains of members of the human TAM receptor family; purchased R&D Systems 154-AL
Procedure: (§1) Kinetic analysis of MAbs 10C9 and 10G5 interacting with rhAxl immobilized on the surface of the Biacore sensor chip. Overlay plots of sensograms for different antibody concentrations (1.3-666.7 nM for 10C9 and 0.3-166.7 nM for 10G5) are shown. The precise kinetic analysis was performed using BIA evaluation software and curve fitting according to 1:1 Langmuir binding model.
as §1, with “chimeric antibodies c10C9” for “MAbs 10C9”, “c10G5” for “10G5”, “c10C9” for “10C9”, “c10G5)” for “10G5)”
(§2) Affinity determination of anti-Axl antibodies 10C9 and 10G5 was performed at 25° C. by surface plasmon resonance measurements using Biacore 3000 instrument (GE Healthcare). As a solid antigen-coated surface, a sensor chip CM5 with immobilized rhAxl-Fc chimera (R&D Systems, Cat. no. 154-AL) at density 190 RU was used.
(§3) For the kinetics measurements, different concentrations of anti-Axl antibodies (from 0.3 to 666.7 nM) in HBS-EP buffer (Biacore, Cat. no. BR-1001-88) were injected at flow rate of 30 μL/min with 3 min injection time followed by 5 min dissociation (buffer alone). After each cycle, the surface was regenerated by 30 sec injection of a regeneration solution (10 mM HCl, 1 M NaCl) at flow rate 50 μL/min.
The kinetic association (on-rate, kon) and dissociation (off-rate, koff) rates were calculated using BIAevaluation software and 1:1 Langmuir binding model. The equilibrium dissociation constant (KD) was calculated as the koff/kon ratio. The half-life (t1/2) of the formed antibody-antigen complexes was calculated as the ln 2/koff ratio.
as §2, with “of the chimeric” for “of”, “c10C9” for “10C9”, “c10G5” for “10G5”
as §3, with “333.3” for “666.7”

Row | binding to human Axl ([1]; listed as 1009) | association rate (kon) [2] | Off-rate (koff; s^−1) ([2]; mouse MAbs) | On-rate (kon; M^−1s^−1) ([2]; mouse MAbs) | Off-rate (koff; s^−1) ([2]; chimeric antibodies) | On-rate (kon; M^−1s^−1) ([2]; chimeric antibodies) | Molecule | binding to human Axl [1]
1 | bind strongly | 1.61e+06 M⁻¹ s⁻¹ | 0.000289 s⁻¹ | 1.61e+06 M⁻¹ s⁻¹ | – | – | 10C9: mouse anti-Axl monoclonal antibody from hybridoma UT-10C9-B9, IgG2b; VH SEQ ID NO: 3, VL SEQ ID NO: 4 (antibody, listed as Mus musculus, V domains shown) VH: QVQLQQPGPELVKPGASVKISCKTSDYNFTRYYIHWVKQRPGQGLEWIGWIYPGTGDSKYNEKFKGRATLTADTSSSTAYMQLSSQTSEDSAVYFCARNGNYWYFDVWGAGTAVTVSS VL: DIVMTQAAPSGPVTPGESVSISCRSSKSLLHSNGNTYLYWFLQRPGQSPQLLIYRMSNLASGVPDRFSGSGSGTAFTLRISRVEAEDVGIYYCMQHREYPFTFGGGTKLEIK | specific binding; also recorded: strong and specific interaction
2 | – | 830000 M⁻¹ s⁻¹ | 0.000439 s⁻¹ | 829000 M⁻¹ s⁻¹ | – | – | 10G5: mouse anti-Axl monoclonal antibody from hybridoma WR-10G5-E5, IgG1; VH SEQ ID NO: 21, VL SEQ ID NO: 22 (antibody, listed as Mus musculus, V domains shown) VH: QVQLQQSGAELVRPGASVKLSCKASGYSFTDFYINWVRQRPGQGLEWIARIFPGGDNTYYNEKFKGKATLTAEESSSTAYIQLSSLTSEDSAVYFCARRGLYYAMDYWGQGISVTVSS VL: DVLMTQTPLSLPVSLGDQASISCRSSQSLVHSNGIPYLHWYLQKPGQSPKLLIYRVSNRFSGVPDRFSGSGSGTDFTLKISRVEAEDLGVYFCSQGTHVPPTFGGGTKLEIK | bind strongly; also recorded: specific binding; also recorded: strong and specific interaction
3 | – | – | – | – | 0.000169 s⁻¹ | 1.64e+06 M⁻¹ s⁻¹ | c10G5: chimeric (mouse variable/human constant) IgG1 variant of antibody 10G5 (antibody, left off: a dimerising Fc or GST, chimeric (mouse variable/human constant) IgG1 variant of antibody 10G5) heavy: QVQLQQSGAELVRPGASVKLSCKASGYSFTDFYINWVRQRPGQGLEWIARIFPGGDNTYYNEKFKGKATLTAEESSSTAYIQLSSLTSEDSAVYFCARRGLYYAMDYWGQGISVTVSS light: DVLMTQTPLSLPVSLGDQASISCRSSQSLVHSNGIPYLHWYLQKPGQSPKLLIYRVSNRFSGVPDRFSGSGSGTDFTLKISRVEAEDLGVYFCSQGTHVPPTFGGGTKLEIK | bind immobilized Axl with profiles very similar to the binding profiles of the corresponding mouse antibodies
